Results from patent publication US20250340635A1 (HEFEI TG IMMUNOPHARMA, published 2025).

Columns and labels:
[1] = molecular target: T1, NKp46 on human peripheral blood mononuclear cells (human, UniProt O76036 22-304); experiment: flow cytometry on human PBMCs
T1 construct: also called human PBMCs
Method: The binding characteristics of the three NKp46 antibodies (10D10 antibody, 10E10 antibody, and 3B9 antibody) obtained in Example 1 were detected using the flow cytometry assay. Murine NKp46 antibodies were added to human peripheral blood mononuclear cells. The signal intensity after antibody addition was used to determine the binding characteristics of the antibody to PBMCs. The specific steps were as follows:
Human peripheral blood mononuclear cells (PBMCs) were diluted to 2×10⁶ cells/mL with PBS and added to a 1.5 mL EP tube at 100 μL/tube. Goat serum was added at […] and was blocked at 4° C. for 30 min. NKp46 antibodies at different concentrations gradients were added and incubated at 4° C. for 30 min. The EP tube was added with 1 mL of PBS, and centrifuged at 3500 rpm at 4° C. for 5 min. The supernatant was discarded and the pellet was washed once more with PBS. After centrifugation, the supernatant was discarded, and the cells were resuspended with 100 μL/tube of PBS, and 0.1 μL/tube of Alexa-647-labeled goat anti-mouse secondary antibody (Biolegend) and 0.5 μL/tube of FITC-labeled CD3 antibody were added, and incubated at 4° C. in the dark for 30 min. The pellet was washed twice with PBS and the supernatant was discarded after centrifugation. The cells were resuspended with 200 μL/tube of PBS and detected by flow cytometry.

[2] = molecular target: T2, cynomolgus monkey-His fusion protein (cynomolgus monkey, UniProt Q95JB9 22-257); experiment: ELISA, NKp46-His coated, anti-mouse HRP
T2 construct: extracellular domain; also called cynomolgus monkey NKp46; monkey NKp46; not shown: His tag
Excerpt: (§1) The binding characteristics of the three NKp46 antibodies (10D10 antibody, 10E10 antibody, and 3B9 antibody) obtained in Example 1 were detected using the ELISA assay. The NKp46 extracellular region His tag fusion protein (NKp46-His) was coated into a 96-well plate. The signal intensity after antibody addition was used to determine the binding characteristics of the antibody to NKp46. The specific steps were as follows:
(§2) The human NKp46-His fusion protein (purchased from Acro) and cynomolgus monkey-His fusion protein (purchased from Acro) were diluted to 1 μg/mL with PBS buffer, added to a 96-well plate at 100 μL/well, and left overnight at 4° C. The PBS buffer solution was removed from the 96-well plate. The plate was washed 6 times with PBST (pH 7.2, PBS containing 0.1% Tween 20) buffer solution. PBS/10% BSA was added at 200 μL/well and incubated at 37° C. for 2 hours for blocking. The blocking solution was removed. The plate was washed 6 times with PBST. NKp46 antibody to be tested diluted to an appropriate concentration with PBST/0.05% BSA was added at 100 μL/well, and incubated for 1 h at 37° C. The reaction system was removed. The plate was washed 6 times with PBST. HRP (horseradish peroxidase)-labeled anti-mouse secondary antibody diluted with PBST/0.05% BSA was added at 100 μL/well and incubated for 1 h at 37° C. The plate was washed 6 times with PBST, and TMB (tetramethylbenzidine) was added at 80 μL/well. After 3 min of incubation at room temperature, 4M sulfuric acid was added at 80 μL/well to terminate the reaction. The absorbance at […] was read with a microplate reader.

[3] = molecular target: T3, human NKp46-His fusion protein (human, UniProt O76036 22-258); experiment: ELISA, NKp46-His coated, anti-mouse HRP
T3 construct: Bought from Acro; also called NKp46 extracellular region His tag fusion protein; not shown: His tag
Excerpt: as §1, §2

[4] = molecular target: T4, NKp46 on cynomolgus monkey peripheral blood mononuclear cells (cynomolgus monkey, UniProt Q95JB9 22-306); experiment: flow cytometry on PBMCs
T4 construct: whole, on cells; also called cynomolgus monkey PBMCs
Method: (§3) The binding characteristics of the two human-murine chimeric NKp46 antibodies (i.e., human-murine chimeric 10D10 antibody and human-murine chimeric 3B9 antibody) prepared in Example 4 were detected using the flow cytometry assay. Human-murine chimeric NKp46 antibodies were added to human and cynomolgus monkey peripheral blood mononuclear cells. The signal intensity after antibody addition was used to determine the binding characteristics of the antibody to PBMCs. The specific steps were as follows:
(§4) Human and cynomolgus monkey peripheral blood mononuclear cells (PBMCs) were diluted to 2×10⁶ cells/mL with PBS and added to 1.5 mL EP tube at 100 μL/tube. Goat serum was added at 10 μL/tube and was blocked at 4° C. for 30 min. NKp46 antibodies at different concentrations gradients and the positive control antibody (hIgG1 LALA) were added and incubated at 4° C. for 30 min. The EP tube was added with 1 mL of PBS, and centrifuged at 3500 rpm at 4° C. for 5 min. The supernatant was discarded and the pellet was washed once more with PBS. After centrifugation, the supernatant was discarded, and the cells were resuspended with 100 IL/tube of PBS, and 0.1 μL/tube of Alexa-647 labeled rat anti-human IgG-Fc secondary antibody (Biolegend) and 0.5 μL/tube BV510-labeled CD16 antibody were added, and incubated at 4° C. in the dark for 30 min. The pellet was washed twice with PBS and the supernatant was discarded after centrifugation. The cells were resuspended with 200 μL/tube of PBS and detected by flow cytometry.

[5] = molecular target: T1, NKp46 on human peripheral blood …; experiment: flow cytometry on PBMCs
Method: as §3, §4

[6] = molecular target: T2, cynomolgus monkey-His fusion protein; experiment: ELISA, NKp46-His coated, anti-human HRP
[7] = molecular target: T3, human NKp46-His fusion protein; experiment: ELISA, NKp46-His coated, anti-human HRP

Measured: binding result

T3 sequence (O76036 22-258 Q82K): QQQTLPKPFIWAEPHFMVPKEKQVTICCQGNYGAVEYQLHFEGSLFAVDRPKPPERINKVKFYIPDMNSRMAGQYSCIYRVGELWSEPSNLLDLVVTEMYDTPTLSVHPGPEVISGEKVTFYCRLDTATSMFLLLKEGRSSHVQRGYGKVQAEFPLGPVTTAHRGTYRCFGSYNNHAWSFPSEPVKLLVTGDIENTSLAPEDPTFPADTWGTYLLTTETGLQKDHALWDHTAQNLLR
T1 sequence (O76036 22-304 Q82K limits assumed): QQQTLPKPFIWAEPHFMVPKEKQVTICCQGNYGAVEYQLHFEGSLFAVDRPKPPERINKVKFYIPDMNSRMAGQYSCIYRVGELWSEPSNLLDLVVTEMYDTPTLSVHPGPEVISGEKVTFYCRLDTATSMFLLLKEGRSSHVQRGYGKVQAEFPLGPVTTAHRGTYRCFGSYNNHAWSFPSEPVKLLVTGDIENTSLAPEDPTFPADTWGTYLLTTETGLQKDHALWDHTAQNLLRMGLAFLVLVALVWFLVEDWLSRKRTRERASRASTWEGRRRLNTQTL
T2 sequence (Q95JB9 22-257): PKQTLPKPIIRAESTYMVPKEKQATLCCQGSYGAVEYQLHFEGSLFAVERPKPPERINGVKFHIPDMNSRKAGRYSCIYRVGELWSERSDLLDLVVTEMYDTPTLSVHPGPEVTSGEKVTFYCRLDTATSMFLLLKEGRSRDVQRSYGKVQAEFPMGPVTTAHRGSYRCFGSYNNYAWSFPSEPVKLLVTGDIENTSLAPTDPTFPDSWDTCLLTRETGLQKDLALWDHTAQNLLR
T4 sequence (Q95JB9 22-306): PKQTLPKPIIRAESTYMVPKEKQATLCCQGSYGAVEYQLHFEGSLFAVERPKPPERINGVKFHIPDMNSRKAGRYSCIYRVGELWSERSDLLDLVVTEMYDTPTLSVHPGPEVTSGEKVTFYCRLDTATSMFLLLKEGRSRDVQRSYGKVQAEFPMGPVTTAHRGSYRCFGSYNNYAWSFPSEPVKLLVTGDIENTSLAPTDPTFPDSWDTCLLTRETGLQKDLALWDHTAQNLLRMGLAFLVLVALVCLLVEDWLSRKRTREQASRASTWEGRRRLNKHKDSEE

B1: murine 10D10 antibody (antibody, mouse IgG2a, kappa)
heavy: QVQLQQPGAELVRPGASVRLSCKASGYTFTTYWMHWVKLRPGQGFEWIGEINPGNGGTNYNEKFKRKATLTVDKSSSTAYMQLSSLTSEDSAVYYCAIRLRFALDYWGQGTSVTVSSAKTTAPSVYPLAPVCGDTTGSSVTLGCLVKGYFPEPVTLTWNSGSLSSGVHTFPAVLQSDLYTLSSSVTVTSSTWPSQSITCNVAHPASSTKVDKKIEPRGPTIKPCPPCKCPAPNLLGGPSVFIFPPKIKDVLMISLSPIVTCVVVDVSEDDPDVQISWFVNNVEVHTAQTQTHREDYNSTLRVVSALPIQHQDWMSGKEFKCKVNNKDLPAPIERTISKPKGSVRAPQVYVLPPPEEEMTKKQVTLTCMVTDFMPEDIYVEWTNNGKTELNYKNTEPVLDSDGSYFMYSKLRVEKKNWVERNSYSCSVVHEGLHNHHTTKSFSRTPGK
light: DIQMTQTTSSLSASLGDRVTISCRASQDVRNFLNWFQQKPDGTVKLLIYFTSRLHSGVPSRFSGSGSGTDYSLTISNLEQEDIATYFCQQGNTLPPTFGGGTKLEIKRADAAPTVSIFPPSSEQLTSGGASVVCFLNNFYPKDINVKWKIDGSERQNGVLNSWTDQDSKDSTYSMSSTLTLTKDEYERHNSYTCEATHKTSTSPIVKSFNRNEC
notes: Murine monoclonal antibody from a hybridoma
binds: [1] | [2] | [3]

B2: human-murine chimeric 10D10 antibody (antibody, human IgG1, kappa, L234A L235A)
heavy: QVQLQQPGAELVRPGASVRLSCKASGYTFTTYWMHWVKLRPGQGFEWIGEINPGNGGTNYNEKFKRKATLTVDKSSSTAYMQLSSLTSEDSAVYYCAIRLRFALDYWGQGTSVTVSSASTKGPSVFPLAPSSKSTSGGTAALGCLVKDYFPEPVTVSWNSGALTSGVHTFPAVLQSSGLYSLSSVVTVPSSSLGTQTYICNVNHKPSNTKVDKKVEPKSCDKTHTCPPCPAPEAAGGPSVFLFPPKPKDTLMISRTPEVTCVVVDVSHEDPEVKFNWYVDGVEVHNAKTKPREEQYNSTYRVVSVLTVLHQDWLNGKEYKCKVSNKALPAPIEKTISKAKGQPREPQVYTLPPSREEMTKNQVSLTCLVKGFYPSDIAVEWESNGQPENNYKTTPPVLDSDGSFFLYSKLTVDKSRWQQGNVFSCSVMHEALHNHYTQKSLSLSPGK
light: DIQMTQTTSSLSASLGDRVTISCRASQDVRNFLNWFQQKPDGTVKLLIYFTSRLHSGVPSRFSGSGSGTDYSLTISNLEQEDIATYFCQQGNTLPPTFGGGTKLEIKRTVAAPSVFIFPPSDEQLKSGTASVVCLLNNFYPREAKVQWKVDNALQSGNSQESVTEQDSKDSTYSLSSTLTLSKADYEKHKVYACEVTHQGLSSPVTKSFNRGEC
notes: Human IgG1 LALA constant region, made in ExpiCHO-S cells; also called 10D10-hIgG1LALA
binds: [4] | [5] | [6] | [7]

B3: human-murine chimeric 10E10 antibody (antibody, human IgG1, kappa, L234A L235A)
heavy: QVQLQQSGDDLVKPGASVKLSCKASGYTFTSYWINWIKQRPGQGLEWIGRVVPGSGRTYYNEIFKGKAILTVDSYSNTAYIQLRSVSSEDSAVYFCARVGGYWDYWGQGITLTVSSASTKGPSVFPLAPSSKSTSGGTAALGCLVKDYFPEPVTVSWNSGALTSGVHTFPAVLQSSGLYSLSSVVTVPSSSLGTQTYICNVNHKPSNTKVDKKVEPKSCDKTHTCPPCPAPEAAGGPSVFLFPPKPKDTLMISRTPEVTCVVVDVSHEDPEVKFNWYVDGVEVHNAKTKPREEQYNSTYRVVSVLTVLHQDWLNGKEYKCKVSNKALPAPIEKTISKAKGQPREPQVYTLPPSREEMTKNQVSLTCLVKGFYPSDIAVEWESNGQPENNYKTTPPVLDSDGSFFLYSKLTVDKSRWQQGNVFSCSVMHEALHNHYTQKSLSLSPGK
light: QIVLSQSPAILSASPGEKVTMACRASSSVNYIHWYQQRPGSSPKPWIYATSSLASGVPARFSGSGSGTSYSLTISRVEAEDAATYYCQQWSSNPYTFGGGTKLEMKRTVAAPSVFIFPPSDEQLKSGTASVVCLLNNFYPREAKVQWKVDNALQSGNSQESVTEQDSKDSTYSLSSTLTLSKADYEKHKVYACEVTHQGLSSPVTKSFNRGEC
notes: Human IgG1 LALA constant region, made in ExpiCHO-S cells; also called 10E10-hIgG1LALA
binds: [6] | [7]

B4: human-murine chimeric 3B9 antibody (antibody, human IgG1, kappa, L234A L235A)
heavy: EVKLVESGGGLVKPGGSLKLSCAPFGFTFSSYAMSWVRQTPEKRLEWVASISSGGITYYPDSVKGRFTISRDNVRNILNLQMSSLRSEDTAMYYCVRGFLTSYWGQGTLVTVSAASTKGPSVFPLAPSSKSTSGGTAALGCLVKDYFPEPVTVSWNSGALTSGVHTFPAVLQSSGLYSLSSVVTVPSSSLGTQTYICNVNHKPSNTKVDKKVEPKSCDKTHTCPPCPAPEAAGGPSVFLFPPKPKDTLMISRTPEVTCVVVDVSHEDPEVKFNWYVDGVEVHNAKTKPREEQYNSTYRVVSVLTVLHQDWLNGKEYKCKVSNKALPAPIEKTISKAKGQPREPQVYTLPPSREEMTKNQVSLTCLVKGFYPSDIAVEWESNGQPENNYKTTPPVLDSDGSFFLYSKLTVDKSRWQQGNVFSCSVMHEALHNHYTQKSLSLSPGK
light: DVVMTQTPLTLSVTIGQPASISCKSSQSLLNSDGKTYLNWLLQRPGQSPKRLISLVSKLDSGVPDRFTGSGSGTDFTLKISRVEAEDLGVYYCWQGTHFWTFGGGTKLEIKRTVAAPSVFIFPPSDEQLKSGTASVVCLLNNFYPREAKVQWKVDNALQSGNSQESVTEQDSKDSTYSLSSTLTLSKADYEKHKVYACEVTHQGLSSPVTKSFNRGEC
notes: Human IgG1 LALA constant region, made in ExpiCHO-S cells; also called 3B9-hIgG1LALA
binds: [4] | [5] | [6] | [7]

B5: humanized 10D10 antibody (antibody, human IgG1, kappa, L234A L235A, V domains shown)
VH: QVQLVQSGAEVKKPGASVKVSCKASGYTFTTYWMHWVKQAPGQGLEWIGEINPGNGGTNYNEKFKRRATMTVDKSISTAYMELSRLRSDDTAVYYCAIRLRFALDYWGQGTLVTVSS
VL: DIQMTQSPSSLSASVGDRVTITCRASQDVRNFLNWFQQKPGKAPKLLIYFTSRLHSGVPSRFSGSGSGTDYTFTISSLQPEDIATYFCQQGNTLPPTFGGGTKLEIKR
notes: human IgG1 LALA; also called h10D10-hIgG1LALA; humanized NKp46 antibody
binds: [6] | [7]

B6: murine 10E10 antibody (antibody, mouse IgG2a, kappa)
heavy: QVQLQQSGDDLVKPGASVKLSCKASGYTFTSYWINWIKQRPGQGLEWIGRVVPGSGRTYYNEIFKGKAILTVDSYSNTAYIQLRSVSSEDSAVYFCARVGGYWDYWGQGITLTVSSAKTTAPSVYPLAPVCGDTTGSSVTLGCLVKGYFPEPVTLTWNSGSLSSGVHTFPAVLQSDLYTLSSSVTVTSSTWPSQSITCNVAHPASSTKVDKKIEPRGPTIKPCPPCKCPAPNLLGGPSVFIFPPKIKDVLMISLSPIVTCVVVDVSEDDPDVQISWFVNNVEVHTAQTQTHREDYNSTLRVVSALPIQHQDWMSGKEFKCKVNNKDLPAPIERTISKPKGSVRAPQVYVLPPPEEEMTKKQVTLTCMVTDFMPEDIYVEWTNNGKTELNYKNTEPVLDSDGSYFMYSKLRVEKKNWVERNSYSCSVVHEGLHNHHTTKSFSRTPGK
light: QIVLSQSPAILSASPGEKVTMACRASSSVNYIHWYQQRPGSSPKPWIYATSSLASGVPARFSGSGSGTSYSLTISRVEAEDAATYYCQQWSSNPYTFGGGTKLEMKRADAAPTVSIFPPSSEQLTSGGASVVCFLNNFYPKDINVKWKIDGSERQNGVLNSWTDQDSKDSTYSMSSTLTLTKDEYERHNSYTCEATHKTSTSPIVKSFNRNEC
notes: as for B1
binds: [1] | [2] | [3]

B7: murine 3B9 antibody (antibody, mouse IgG2a, kappa)
heavy: EVKLVESGGGLVKPGGSLKLSCAPFGFTFSSYAMSWVRQTPEKRLEWVASISSGGITYYPDSVKGRFTISRDNVRNILNLQMSSLRSEDTAMYYCVRGFLTSYWGQGTLVTVSAAKTTAPSVYPLAPVCGDTTGSSVTLGCLVKGYFPEPVTLTWNSGSLSSGVHTFPAVLQSDLYTLSSSVTVTSSTWPSQSITCNVAHPASSTKVDKKIEPRGPTIKPCPPCKCPAPNLLGGPSVFIFPPKIKDVLMISLSPIVTCVVVDVSEDDPDVQISWFVNNVEVHTAQTQTHREDYNSTLRVVSALPIQHQDWMSGKEFKCKVNNKDLPAPIERTISKPKGSVRAPQVYVLPPPEEEMTKKQVTLTCMVTDFMPEDIYVEWTNNGKTELNYKNTEPVLDSDGSYFMYSKLRVEKKNWVERNSYSCSVVHEGLHNHHTTKSFSRTPGK
light: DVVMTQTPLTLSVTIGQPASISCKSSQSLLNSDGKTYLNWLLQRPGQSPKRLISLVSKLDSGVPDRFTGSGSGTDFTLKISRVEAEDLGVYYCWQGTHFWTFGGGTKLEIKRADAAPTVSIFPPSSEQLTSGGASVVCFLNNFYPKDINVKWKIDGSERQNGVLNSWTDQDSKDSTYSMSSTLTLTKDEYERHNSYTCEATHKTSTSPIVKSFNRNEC
notes: as for B1
binds: [1] | [2] | [3]
